Measured values: patent US20220306744A1 (CRESCENDO BIOLOGICS, published 2022)

Legend:
[1] = target: T1, human PD-1 expressed on cells (CHO TREX human PD1 cell line, full-length human PD-1 sequence) (human, UniProt Q15116 21-288); test: cell-based or functional assay
[2] = target: T1, human PD-1 expressed on cells (CHO TREX …); test: cell-based or functional assay; remark: listed apart in the source
[3] = target: T1, human PD-1 expressed on cells (CHO TREX …); test: FMAT: inhibition of human Fc tagged human PD-L1 (400 pM) binding to CHO human PD-1 cells
Protocol: (§1) Purified VH were serially diluted in FMAT assay buffer and tested for binding to CHO human PD-1 cells as described above and for inhibition of human PD-L1/PD-L2 binding to CHO human PD-1 cells. All reagents and serially diluted VH were prepared in FMAT assay buffer. VH, buffer (total binding controls) or excess competitor (non-specific binding control) were incubated with 400 pM human Fc tagged human PD-L1 or 100 pM PDL-2, 4 nM anti human Fc-Alexa Fluor-488 and 2000 per well CHO human PD-1 DRAQ5 stained cells in a 384 well black clear-bottomed assay plates. Plates were incubated for 2 hours at room temperature then fluorescence measured in the FL2 (502 nm-537 nm) and FL5 (677-800 nm) channels on the Mirrorball plate reader (TTP) following excitation at 488 nm and 640 nm. Data was expressed as a % of the total binding control (i.e. % control) after subtraction of the background signal determined from the non-specific binding control wells. The results are shown in FIG. 5 and in Tables 8 and 9 below.

[4] = target: T1, human PD-1 expressed on cells (CHO TREX …); test: FMAT: inhibition of PDL-2 (100 pM) binding to CHO human PD-1 cells
Protocol: as §1

[5] = target: T1, human PD-1 expressed on cells (CHO TREX …); test: FMAT: inhibition of human Fc tagged human PD-L1 (400 pM) binding to CHO human PD-1 cells; remark: listed apart in the source
Protocol: as §1

[6] = target: T2, Strep tagged recombinant human PD-1 (human, UniProt Q15116 25-167, limits assumed); test: SPR Biacore T200, single cycle kinetics, Strep tagged human PD-1 amine coupled, 1:1 model
T2 construct: whole entry named; also called Strep tagged human PD-1; not shown: Strep tag
Protocol: Single cycle kinetics assays were used to study the interaction between human PD-1 with Humabody VHs on a Biacore T200 instrument (GE Healthcare). Strep tagged recombinant human PD-1 was amine coupled to one flow cell of a CM-5 chip to create a low density surface (14 RU) using standard Biacore reagents. For the reference flow cell, a blank immobilisation was carried out. A five point, three-fold dilution series of each Humabody VH was made with a top concentration of 25 nM. The binding kinetics were followed by flowing the Humabody VH over the chip surface in HBS EP+ buffer at a flow rate of 30 μl/min. The contact time for each of the association steps was 180 seconds and the dissociation step was 3300 seconds. The data was fitted to a 1:1 binding model after double reference subtraction using the Biacore T200 Evaluation software.

[7] = target: T3, recombinant human PD-1 Fc chimera (human, UniProt Q15116 25-167); test: SPR Biacore T200, single cycle kinetics, human PD-1-hu Fc amine coupled to CM5, 1:1 model
T3 construct: Bought protein (R&D 1086-PD in the HTRF assay); also called human PD-1-hu Fc; huPD-1Fc; not shown: human Fc
Protocol: Binding kinetics of certain humabodies binding to human PD-1-hu Fc were measured by surface plasmon resonance (SPR) technology using Biacore T200 instrument (GE Healthcare). Recombinant human PD-1-hu Fc was immobilized by standard amine coupling to CM5 sensors chip (GE Healthcare) using 0.1 mg/ml solution of antigen in 10 mM sodium acetate at pH 5.5. For the reference flow cell, a blank immobilisation was carried out. Single cycle kinetics assays were used to study the interaction, a five point, three-fold dilution series of each Humabody® VH was made with a top concentration of 30 nM. The binding kinetics were followed by flowing the Humabody® VH over the chip surface in HBS EP+ buffer at a flow rate of 30 μl/min. The contact time for each of the association steps was 180 seconds and the dissociation step was varied between 1200-3600 seconds. The data was fitted to a 1:1 binding model after double reference subtraction using the Biacore T200 Evaluation software.

[8] = target: T3, recombinant human PD-1 Fc chimera; test: SPR Biacore T200, single cycle kinetics, human Fc tagged PD-1 captured on Protein G, 1:1 model
Protocol: Single cycle kinetics assays were used to study the interaction between human Fc tagged human PD-1 with Humabody® VH on a Biacore T200 instrument (GE Healthcare). Protein G was amine coupled to two flow cells of a CM-5 chip. Human Fc tagged recombinant human PD-1 was captured onto one of the flow cells. The other was used as the reference flow cell. A five point, three-fold dilution series of each Humabody® VH was made with a top concentration within the range of 50 to 150 nM. The binding kinetics were followed by flowing the Humabody® VH over the chip surface in HBS EP+ buffer at a flow rate of 30 μl/min. The contact time for each of the association steps was 180 seconds and the dissociation step was 3600 seconds. The data was fitted to a 1:1 binding model after double reference subtraction using the Biacore T200 Evaluation software.

T3 sequence (Q15116 25-167 limits assumed, stated change not applied): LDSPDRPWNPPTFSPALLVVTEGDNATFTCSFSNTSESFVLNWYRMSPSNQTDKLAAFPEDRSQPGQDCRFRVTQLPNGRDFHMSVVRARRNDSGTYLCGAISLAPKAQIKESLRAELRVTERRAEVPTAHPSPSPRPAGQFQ
T2 sequence (Q15116 25-167 limits assumed): as the sequence (Q15116 25-167 limits assumed, stated change not applied) above
T1 sequence (Q15116 21-288): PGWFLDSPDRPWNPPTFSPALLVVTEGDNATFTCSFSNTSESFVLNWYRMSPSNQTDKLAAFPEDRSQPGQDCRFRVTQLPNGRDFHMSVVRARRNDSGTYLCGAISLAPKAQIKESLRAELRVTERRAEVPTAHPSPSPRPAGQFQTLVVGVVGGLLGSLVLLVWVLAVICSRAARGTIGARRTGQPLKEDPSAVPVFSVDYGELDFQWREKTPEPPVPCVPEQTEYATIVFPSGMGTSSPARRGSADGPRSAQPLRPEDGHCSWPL

| Binder | EC50 (M), NFAT-Luciferase reporter gene assay [1] | EC50 uM, PathHunter Checkpoint assay (PD-1 signalling) [2] | Max. % increase in response over baseline, PathHunter Checkpoint assay [2] | IC50 [3] | Kd [7] | koff [7] | kon [7] | further results |
| --- | --- | --- | --- | --- | --- | --- | --- | --- |
| 1.77b-1GS-1.21a (other) EVQLVESGGGLVKPGGSLRLSCAASGFTFSDSSMTWMRQAPGKGLEWVSYISSGGGVKFYTDSVKGRFTISRDNAKNSLYLQMNSLRAEDTAVYYCAREAPLRLGESPHDAFDISGQGTMVTVSSGGGGSEVQLVESGGGLVQPGRSLRLSCAASGFTFDDYAMHWVRQAPGKDLEWVSGISWNGGSMGYAASVKGRFTISRDNAKNSLYLQMNSLRAEDTALYYCVREKGPGLTGSTADYYGLDVWGQGTMVTVSS | 2.3e-09 M | 0.00059 µM | 1330% |  |  |  |  |  |
| 1.1b (VHH, also called Humabody 1.1b) VHH: QVQLVESGGGLVKPGGSLRLSCAASGFTFSDYTMTWMRQAPGKGLEWVSYISTGGTIKYYTDSVKGRFTISRDNAKNSLYLQMNSLRADDTAVYYCAREAPLRLGESPHDAFDIWGQGTMVTVSS |  |  |  | 23 nM |  |  |  |  |
| 1.57b (VHH) VHH: QVQLVESGGGLVKPGGSLRLSCAASGFTFSDNSMTWMRQAPGKGLEWVSYISSGGGVIFYADSVKGRFTISRDNAKNSLYLQMNSLRADDTAVYYCAREAPLRLGESPHDAFDISGQGTMVTVSS |  |  |  | 4.2 nM | 0.000124 nM | 6.68e-08 s⁻¹ | 537000 M⁻¹ s⁻¹ | IC50 [4]: 2.3 nM; IC50 [5]: 1.8 nM; Kd [6]: 0.0782 nM; koff [6]: 3.17e-05 s⁻¹; kon [6]: 405000 M⁻¹ s⁻¹; Kd [8]: 0.0441 nM; koff [8]: 2.11e-05 s⁻¹; kon [8]: 479000 M⁻¹ s⁻¹ |
| 1.1b-4GS-1.1a (other, Biparatopic VH-linker-VH) QVQLVESGGGLVKPGGSLRLSCAASGFTFSDYTMTWMRQAPGKGLEWVSYISTGGTIKYYTDSVKGRFTISRDNAKNSLYLQMNSLRADDTAVYYCAREAPLRLGESPHDAFDIWGQGTMVTVSSGGGGSGGGGSGGGGSGGGGSEVQLLESGGGSVQPGRSLRLSCAASGFTFDDHAMHWVRQAPGKGLEWVSGISWNSGSMGYADSVKDRFTISRDNAKSSLYLQMNSLRAEDTALYYCVREKGPGLTGSTADYYGLDVWGQGTMVTVSS | 8.5e-09 M |  |  | 5.6 nM | 0.035 nM | 1.1e-05 s⁻¹ | 316000 M⁻¹ s⁻¹ |  |
| 1.1b-2GS-1.1a (other, Biparatopic VH-linker-VH; His tag implied by the assays; not in the chain) QVQLVESGGGLVKPGGSLRLSCAASGFTFSDYTMTWMRQAPGKGLEWVSYISTGGTIKYYTDSVKGRFTISRDNAKNSLYLQMNSLRADDTAVYYCAREAPLRLGESPHDAFDIWGQGTMVTVSSGGGGSGGGGSEVQLLESGGGSVQPGRSLRLSCAASGFTFDDHAMHWVRQAPGKGLEWVSGISWNSGSMGYADSVKDRFTISRDNAKSSLYLQMNSLRAEDTALYYCVREKGPGLTGSTADYYGLDVWGQGTMVTVSS | 7.2e-09 M |  |  |  | 0.0346 nM | 1.08e-05 s⁻¹ | 313000 M⁻¹ s⁻¹ |  |
| 1.77b-4GS-1.77b (other) EVQLVESGGGLVKPGGSLRLSCAASGFTFSDSSMTWMRQAPGKGLEWVSYISSGGGVKFYTDSVKGRFTISRDNAKNSLYLQMNSLRAEDTAVYYCAREAPLRLGESPHDAFDISGQGTMVTVSSGGGGSGGGGSGGGGSGGGGSEVQLVESGGGLVKPGGSLRLSCAASGFTFSDSSMTWMRQAPGKGLEWVSYISSGGGVKFYTDSVKGRFTISRDNAKNSLYLQMNSLRAEDTAVYYCAREAPLRLGESPHDAFDISGQGTMVTVSS |  | 0.0002 µM | 48.5% |  |  |  |  |  |
| 1.1a-4GS-1.57b (other) EVQLLESGGGSVQPGRSLRLSCAASGFTFDDHAMHWVRQAPGKGLEWVSGISWNSGSMGYADSVKDRFTISRDNAKSSLYLQMNSLRAEDTALYYCVREKGPGLTGSTADYYGLDVWGQGTMVTVSSGGGGSGGGGSGGGGSGGGGSQVQLVESGGGLVKPGGSLRLSCAASGFTFSDNSMTWMRQAPGKGLEWVSYISSGGGVIFYADSVKGRFTISRDNAKNSLYLQMNSLRADDTAVYYCAREAPLRLGESPHDAFDISGQGTMVTVSS | 3.9e-09 M |  |  |  |  |  |  |  |
| 1.77b-4GS-1.21a (other) EVQLVESGGGLVKPGGSLRLSCAASGFTFSDSSMTWMRQAPGKGLEWVSYISSGGGVKFYTDSVKGRFTISRDNAKNSLYLQMNSLRAEDTAVYYCAREAPLRLGESPHDAFDISGQGTMVTVSSGGGGSGGGGSGGGGSGGGGSEVQLVESGGGLVQPGRSLRLSCAASGFTFDDYAMHWVRQAPGKDLEWVSGISWNGGSMGYAASVKGRFTISRDNAKNSLYLQMNSLRAEDTALYYCVREKGPGLTGSTADYYGLDVWGQGTMVTVSS | 3.2e-09 M | 0.0005 µM | 253% |  |  |  |  |  |
| 1.64b-4GS-1.1a (other) EVQLVESGGGLVKPGGSLRLSCAASGFTFSDSSMTWMRQAPGKGLEWVSYISSGGGVKFYADSVKGRFTISRDNAKNSLYLQMNSLRADDTAVYYCAREAPLRLGESPHDAFDISGQGTMVTVSSGGGGSGGGGSGGGGSGGGGSEVQLLESGGGSVQPGRSLRLSCAASGFTFDDHAMHWVRQAPGKGLEWVSGISWNSGSMGYADSVKDRFTISRDNAKSSLYLQMNSLRAEDTALYYCVREKGPGLTGSTADYYGLDVWGQGTMVTVSS | 3e-09 M |  |  |  |  |  |  |  |
